Data as given in the DeepSol protein solubility set.

Assay: soluble on expression in E. coli; label from the status in PepcDB or PDB records

Sequence	soluble on expression in E. coli
MELESKMGAFCGAAQSNYDDACVAFSAANKCAPIERETGVKKLADKLNPEQPHKLSVMDVKLITKASGDYTIVNSLLYSLDMVAVAVDKNGESETFVKRTLDNSIYAGELAQEALKHAGQKRMTGRSKNTIVKKAHTAIGNLVLLINDMEGRTPNASSFLSMGMDLLSSGVTVPGLA	not soluble
MDQLREIVDPDQPQTLRQQAEGWGKMAELLREYSLLLDERLRLVEHSWTGEAATMYFDEVRRVQEYIEDSAERATANCGLWCVIATMAGIAKHDVSHIHQLWKDLDAATDAVGLGFVAGVFGADEALEDFQRKPFDAASRQIMEVTMSAADESYARMRDFEEFEPPPSVDDSGLELQSVSTPAPPSGTAVAPPSTTVTATPAVPLGPTAPRPVVPSVIGSRPGMMPMARPMMGPGHTVPPVIGQRDGGSAQPGATGRLIGRDGVVRVTPDVDLRDPNASRAHYGGDDVNRGVIKSQNPQRVADEAQFKLEEEVRRLRERAYAHRVETLTADHSQYAIPGIVGDDSAWDTKAHDPGPVAFDVRRLRHRPVVDDWTLAVRRH	not soluble
MSLSPIAPYEIGYVHIDSCELCHADGKLVMFLAIDRVSKFTYVDFHDCAGKMEGAAFLRNVVEAFPYQIHIVLTDNGMAFADLPKNRNGPSRRFFGPHIFDRVCIEHGIEHRLTKPYHPWTNGQAERMNRTIKDATIKAYHYDDLESLKAHVLAFVTAYNFAKHLKALRWRTPYQAICDARTKDPSIFKIDPHHLTQGPHTLSEGHHHHHH	not soluble
MVDPNEHKKAVKTQQQDDEQTFEAVARAWHTDNKKWSESHAERILKSLSDNIFPAIGGTHVANLKTRDLLTPIKSVERSGRLEVAKRLKQRVTAIMTYAVQNGLIDYNPAQDMAGAIMPGKVEHRLEHHHHHH	not soluble
MSKFNRIHLVVLDSVGIGAAPDADKFFNAGVADTDSDTLGHISEAAGLSVPNMAKIGLGNISRPIPLKTVPTEDNPTGYVTKLEEVSLGKDTMTGHWEIMGLNITEPFDTFWNGFPEEILTKIEEFSGRKIIREANKPYSGTAVIDDFGPRQMETGELIVYTSADPVLQIAAHEDIIPVEELYKICEYARSITLERPALLGRIIARPYVGDPGNFTRTANRHDYAVSPFQDTVLNKLADAGVPTYAVGKINDIFNGSGITNDMGHNKSNSHGIDTLIKTLQLPEFTKGFSFTNLVDFDANFGHRRDPEGYRDCLHEFDNRLPEIIANMKEDDLLLITADHGNDPTYAGTDHTREYIPLLAYSVSFTGNGLIPQGHFADISATVAENFGVDTAMIGESFLSHLK	not soluble
MLKIISGKYRNQIIPTAKNIKYRPSTGKLKEAIFSILTSGEFTGNKLFNENTHILDLFAGSGSLAFESLSRGAGFATLIDIDTSSLKIAEGFAKSLNIENNVNFVNINALNLPKATRHLFKPAYREGSKGDTEHSTAAYTLVREDASTGSTFKLPLEAKFGKMSNKSFDLVFIDPPYHKNIVPKVMKLLIKNNWLKDGAIIVIEMAKTDDYILDENIEIIREKLYGKSKLLVLSFTVIPAKAGIQ	not soluble
NAQARFSQNLLDQGSHPTSEKLLSVLRPASGHVADALGITEGENVIHLRTLRRVNGVALCLIDHYFADLTLWPTLQRFDSGSLHDFLREQTGIALRRSQTRISARRAQAKECQRLEIPNMSPLLCVRTLNHRDGESSPAEYSVSLTRADMIEFTMEH	soluble
MSLNKTNYNNIISINQQREFVLFQNIQKECPLLVVFDLDDTLIHTHINTNNLCINSSDIFTIRVNEIKYYCEVRKGVVETLERLSKQFRIMIYTASKKEYADQVVSHLEKNCKLFSKILYREDCLEEEGFIYKTIHNINYNVKRIICIDDNPSAWKKLENVYVCKKYNGGIDDEMIDIEKTFIKCCILCFLFVEGHHHHHH	soluble
NDPEWFAIVKWTLFAMLNAEEAKITSKNVEAEAKATKNPDVARMLGADGTYGKDLNLPKDWVVQIVKQVGNYGEVFERNLGEGTPLKIKRGQNALWNAGGIQYAPPIR	not soluble
MGSDKIHHHHHHMIGDMNELLLKSVEVLPPLPDTVSKLRKYVSEANSNIETMKVAEIISSDPLMTAKLLQLANSPYYGFTREITTINQVITLLGVGNIINIVMADSIRDNFKIDVSPYGLNTQNFLKTCNEEATFIANWLNDEDKKLSHLLVPCAMLLRLGIVIFSNFLIQNHKDKDFLAFLNKNENLALAENEFLGVDHISFLGFLLHRWNFDDVLIESICFVRTPHAAREKVKKSAYALAITDHLFAPHDGSSPFNAKAAVALLKEAKTQGINFDLNNLLSKLPNKAKENLNKED	soluble
GPLGSKNMLLEWCRAMTRNYEHVDIQNFSSSWSSGMAFCALIHKFFPEAFDYAELDPAKRRHNFTLAFSTAEKLADCAQLLEVDDMVRLAVPDSKCVYTYIQELYRSLVQKGLVKTKKK	soluble
MLGKEELRNQSIAVIGAGIIGLSIGLKLQQQGYHVTIFDPNGVGNGCSKGNAGHIATEQVFPLATPALIPQLPKMLLSSTSPVSIRWQDLPNTVGWMIRFLLKAKPSAAEASTQAITSLNTRAVQSWNLLLDSIGKSGLIKMDGSLLTFESESLFEGYQSTLDALAEQGVRYELWTQNEIRRRLPELSRKVRFGVFFPETGHTINPYALCVELSNAFEKLGGSLVHEEVDAVSKNGDVLVNTQRMSFDKIVVAAGVHSKALVRQLTGVNVPIQAERGYHLMMNDKRESLPFPISSADRKFIMTPMSEGLRLAGTVEYADVKSPPNMKRAEMLYQQGNAMFESGLNPLEQQEKWMGNRPSTIDSLPVIDQCFNGKIFLAFGHQHLGLTQAAITADLISELVADKPTSVNITPFTLQRFALEHHHHHH	not soluble
MEGEAELWNFLERHLRSIYEGDWATYEATTHEELSLYEWFVTPHRLDGLPFHRFMVEKNWATRGRAYRLDLLEKRLQRYGDVAIFSYTLLLTVEEEAGLRHRAVNESRVAVRFPEGWKVVHVHKSPAG	soluble
MASVASCDSRPSSDELPGDPSSQEEDEDYDFEDRVSDSGSYSSASSDYDDLEPEWLDSVQKNGELFYLELSEDEEESLLPETPTVNHVRFSENEIIIEDDYKERKKYEPKLKQFTKILRRKRLLPKRCNKKNSNDNGPVSILKHQSNQKTGVIVQQRYKDVNVYVNPKKLTVIKAKEQLKLLEVLVGIIHQTKWSWRRTGKQGDGERLVVHGLLPGGSAMKSGQVLIGDVLVAVNDVDVTTENIERVLSCIPGPMQVKLTFENAYDVKRETSHPRQKKTQSNTSDLVKLLWGEEVEGIQQSGLNTPHIIMYLTLQLDSETSKEEQEILYHYPMSEASQKLKSVRGIFLTLCDMLENVTGTQVTSSSLLLNGKQIHVAYWKESDKLLLIGLPAEEIELPSSAHTHGERN	soluble
MKRGYVLHHRPYRESSALVNLLVDGIGRVDAVARVGSGKRSIKSILQPFQPLIFEFSGKSELKNISQIEAAAPAVPLSGYSLYAGMYINELLMRTLSVQHNAEALFFIYHQALVGLAAQFCESKLRYLELALLRELGAMPSLIRDTQGEPLIPEHCYQLVPELGFQFVLNSRAKHTYQGAMLTALNDNQLLQEQFLEAKRLMRSMLQPLLGNKPLVSRQLFIQAAASKVDGNN	not soluble
MEALGKTILASDDINSIKKNLAKHIVHLNEENEKYRNEIKLLKKNKDINNQILFTLNKTEISSDMIDSLFMQTKNVIIQVTNKKY	not soluble
MSELSFAQLLEESFAATPRLGDVVKGTVVAIQKGYVIVDTGFKSESSIPAEEFINAQGELEVQIGDQVDVVLKAVEDGFGETVVSRGDAKRNEAWIALEKAFEEQATVIGFVNGKVKGGFTVELNGVRAFLPGSLVDTRPVRDSLNLEGKELEFKVIKLDQKRNNVVVSRRAVIESENSQDRDEVLANLVEGSVITGTVKNLTDYGAFVDLGGVDGLLHITDMAWKRVKHPSEVVAVGQEVTVKVLKFDKEKTRVSLGLKQLGQDPWAAIAHNHPVNSKLTGKVTNLTDYGCFVEILDGVEGLVHVSEMDWTNKNIHPSKVVSVGDVVEVMVLEVDEERRRISLGLKQCKANPWEHFAATHNKNDKVTGKIKSITDFGIFIGLEGGIDGLVHLSDISWNVTGEEAVRNYKKGDEVEAVVLQVDAAKERISLGIKQLESDPFTNFVDSTKKGAILTGKVVDVDTKGVKVELEGGVEAFIRANEATRERVEDITTVISVGDSIEAKYTGIDRKSRLVNLSVRAKDEAEESAALAQVNKQDVEMPNAMTAAFQAAKGELEHHHHHH	soluble
MRVRNIQGEDYVKIYSVLNDWWGGRDMAVMLPKLFFIHFQETSFIIEEEGETLGFLCGFFSQTHKEEAYVHFIGVNPKYRRRGIASTLYSYFFDVARANNRKVVKAITSPVNKKSIQFHREIGFQIEAGDDEIEGVSVHTNYDGNGGSRVLFLKNV	not soluble
MGSDKIHHHHHHMTWNTPKPGEWKSEELSKGRIIDYKAFNFVDGEGVRNSLYVAGCMFHCEGCYNVATWSFDAGIPYTQELEEQIMEDLAQPYVQGLTLLGGEPFLNTGILLPLLKRIRKELPEKDIWSWTGYTWEELMLETPDKLEMLNLLDILVDGRFDKSKKNLMLQFRGSSNQRIIDVPKSLASGQVVIWDKLNDGKQTYEQIDRDGLI	not soluble
MKYDLIIIGSGSVGAAAGYYATRAGLKVLMTDAHMPPHQQGSHHGDTRLIRHAYGEGEKYVPLVLRAQTLWDELSTHNEEPIFVRSGVVNLGPADSAFLANVARSAQQWQLNVERLDATALMTRWPEIRVPDNYIGLFEADSGFLRSELAITTWLRLAREAGCAQLFNSPVSHIHHDDNGVTIETSEGCYHASKALISAGTWVKALVPELPVQPVRKVFAWFKADGRYSTKNRFPAFTGEMPNGDQYYGFPAENDELKIGKHNGGQLIQAPEERKPFAAVASDGAEAFPFLRNVLPGIGGCLHGAACTYDNSPDEDFIIDTLPGHENTLVITGLSGHGFKFAPVLGEIAADFALGKTPSFDLTPFRLSRFSQ	not soluble
MAPGQLALFSVSDKTGLVEFARNLTALGLNLVASGGTAKALRDAGLAVRDVSELTGFPEMLGGRVKTLHPAVHAGILARNIPEDNADMARLDFNLIRVVACNLYPFVKTVASPGVTVEEAVEQIDIGGVTLLRAAAKNHARVTVVCEPEDYVVVSTEMQSSESKDTSLETRRQLALKAFTHTAQYDEAISDYFRKQYSKGVSQMPLRYGMNPHQTPAQLYTLQPKLPITVLNGAPGFINLCDALNAWQLVKELKEALGIPAAASFKHVSPAGAAVGIPLSEDEAKVCMVYDLYKTLTPISAAYARARGADRMSSFGDFVALSDVCDVPTAKIISREVSDGIIAPGYEEEALTILSKKKNGNYCVLQMDQSYKPDENEVRTLFGLHLSQKRNNGVVDKSLFSNVVTKNKDLPESALRDLIVATIAVKYTQSNSVCYAKNGQVIGIGAGQQSRIHCTRLAGDKANYWWLRHHPQVLSMKFKTGVKRAEISNAIDQYVTGTIGEDEDLIKWKALFEEVPELLTEAEKKEWVEKLTEVSISSDAFFPFRDNVDRAKRSGVAYIAAPSGSAADKVVIEACDELGIILAHTNLRLFHH	soluble
GPGSMRCVRSAAVLVKFGRSFDSTTRFGKELGFSHKMRDIPVLTGNPRPVAREEEWSCRYKLTDRMEDVVMDILKKEGWCEAEVQREMSEIFERKTQGCRSSLNTWTTVEEFQRTPWYRRYKPTDTCVAKYISYEVVKLLEEALIPPSLRGDPYAHLRKRHMEDNWMNDRFSEEAAKYIQREDLNKHTKGLPQYGQITRRKFLEFDRQFKESYGGKQHVNEAYSAWLQSIGKG	not soluble
